Molecular target: 3M2e-ferritin nanoparticle (three copies of M2e of H1N1 influenza virus fused to the N terminus of H. pylori ferritin) (influenza A virus H1N1 | Helicobacter pylori)
Assay: native gel or EMSA

Which stoichiometry N does the source give for “3M2e-ferritin nanoparticle (three copies of M2e of H1N1 influenza virus fused to the N terminus of H. pylori ferritin)” here?
The stoichiometry N was 24.

Reference: publication PMC10269571
